Ki data for two molecules are collected here from paper PMC5840032 (Bioorganic & medicinal chemistry, 2017).

The assay concerns the target anthrax lethal factor (LF) protease (UniProt P15917 34-809). Kind of assay: enzyme inhibition assay.

One may read the Ki as a measure of affinity in units of concentration, obtained from inhibition or displacement. Lower therefore signals tighter binding.

Chain of anthrax lethal factor (LF) protease (P15917 34-809): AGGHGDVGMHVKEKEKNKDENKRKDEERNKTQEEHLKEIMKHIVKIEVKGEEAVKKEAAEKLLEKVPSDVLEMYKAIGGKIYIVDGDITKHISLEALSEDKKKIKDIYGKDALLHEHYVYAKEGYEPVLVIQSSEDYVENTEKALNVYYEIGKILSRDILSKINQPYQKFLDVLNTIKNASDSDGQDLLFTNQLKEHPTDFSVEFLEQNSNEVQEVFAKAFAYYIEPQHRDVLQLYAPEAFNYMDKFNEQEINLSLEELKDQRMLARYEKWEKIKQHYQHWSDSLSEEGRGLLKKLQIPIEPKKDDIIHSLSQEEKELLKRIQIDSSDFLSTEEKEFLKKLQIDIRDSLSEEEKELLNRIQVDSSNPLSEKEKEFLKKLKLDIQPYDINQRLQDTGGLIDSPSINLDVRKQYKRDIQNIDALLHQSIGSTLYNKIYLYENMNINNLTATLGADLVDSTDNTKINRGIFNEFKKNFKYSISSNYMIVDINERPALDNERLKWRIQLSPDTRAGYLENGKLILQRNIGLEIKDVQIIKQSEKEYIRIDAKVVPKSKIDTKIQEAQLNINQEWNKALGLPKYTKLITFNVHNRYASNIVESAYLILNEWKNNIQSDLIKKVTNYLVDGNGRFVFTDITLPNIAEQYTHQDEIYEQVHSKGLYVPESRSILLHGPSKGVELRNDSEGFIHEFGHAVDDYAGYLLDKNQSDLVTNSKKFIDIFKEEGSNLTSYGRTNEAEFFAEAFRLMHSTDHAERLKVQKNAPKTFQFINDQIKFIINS

GFCRCACLHGVCRCICTR (not fully specified; backbone-cyclized; three disulfide bonds) [RTD-1 analog clone #14] displayed a Ki of 946 ± 47 nM. In turn, GFCRCPCSRYGCWCICTR (not fully specified; backbone-cyclized; three disulfide bonds) [RTD-1 analog clone #52] showed a Ki of 946 ± 58 nM.
